From patent US20230086603A1 (BOLT BIOTHERAPEUTICS, published 2023)

Molecular target: PD-L1 on CHO-K1/PD-L1/alphaAPC stimulator cells (UniProt Q9NZQ7 19-290, limits assumed)
Test: cell-based or functional assay

Chain of PD-L1 on CHO-K1/PD-L1/alphaAPC stimulator cells (Q9NZQ7 19-290 limits assumed): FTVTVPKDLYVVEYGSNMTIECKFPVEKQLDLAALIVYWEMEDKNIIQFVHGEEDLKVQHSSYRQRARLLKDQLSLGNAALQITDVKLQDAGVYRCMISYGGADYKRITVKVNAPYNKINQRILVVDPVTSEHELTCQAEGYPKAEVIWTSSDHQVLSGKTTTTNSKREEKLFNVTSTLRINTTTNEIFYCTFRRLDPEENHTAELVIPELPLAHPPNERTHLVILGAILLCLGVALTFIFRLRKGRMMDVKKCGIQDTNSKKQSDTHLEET

B1: PD-L1 binding agent 21 (antibody, V domains shown)
VH: QVQLVQSGAEVKKPGASVKVSCKASGYTFTSHYMHWVRQAPGQGLEWMGWMNPNSGHTGNAQKFQGRVTMTRDTSTSTVYMELSSLRSEDTAVYYCARGNWVDAFDIWGQGTMVTVSS
VL: DIQMTQSPSSLSASVGDRVTITCRASQGIRNDLAWYQQKPGKAPKLLIYAASTLQSGVPSRFSGSGSGTDFTLTISSLQPEDFATYYCQQSYSTPLTFGGGTKVEIK
EC50 (nM), PD-L1/PD-1 blockade, luciferase reporter cells: 0.9 nM | EC50 (ng/ml), PD-L1/PD-1 blockade, luciferase reporter cells: 129 ng/mL
